Paper PMC11362169, “Interdomain-linkers control conformational transitions in the SLC23 elevator transporter UraA” (Nature Communications, 2024)

Assays:
[1] = target: uracil; assay: scintillation proximity assay (homologous competition with 3H-uracil)
[2] = target: T1, UraA (Escherichia coli, UniProt P0AGM7); assay: differential scanning fluorimetry (CPM dye); assay type: binding; conditions: 20 mM Hepes pH 7.5, 150 mM NaCl, 0.2% DM
T1 construct: full-length ORF, expressed in E. coli MC1061 from pBXC3GH (tag removed with HRV-3C protease), decylmaltoside-solubilized; C-terminal biotinylated AVI-tag for SPA; WT and G112P monomeric, P330G dimeric, G320P both fractions

[3] = target: T2, wild type UraA (E. coli uracil permease) (E. coli, UniProt P0AGM7); assay: differential scanning fluorimetry; UraA variants 0.1 mg/mL in 20 mM Hepes pH 7.5, 150 mM NaCl, 0.2% DM, without uracil, in absence and presence of Sy45; CPM dye, 25 to 90 °C at 2 °C/min; conditions: both partners purified
T2 construct: uracil permease UraA, E. coli; open reading frame amplified from genomic DNA of E. coli MC1061; Membrane protein in 0.2% decylmaltoside; elutes as monomers and dimers; A few residues of the FX cloning sites and of the 3C site probably remain after cleavage (surmised); also called UraA(WT); source: E. coli MC1061 (pBXC3GH), purified (decylmaltoside-solubilised, Ni-NTA, eluted with HRV-3C protease, …)

**Q.** For “wild type UraA (E. coli uracil permease) (from UniProt P0AGM7) P330G”, which Kd ([1]; absence of Sy45) is on record?
**A.** 7 nM

**Q.** Which Kd ([1]; absence of Sy45) does the source give for “wild type UraA (E. coli uracil permease) (from UniProt P0AGM7) G320P” here?
**A.** 35 nM

**Q.** What about the Kd ([1]; presence of Sy45 (panel titled UraA(G320P)-Sy45)) of the same molecule?
**A.** 144 nM

**Q.** How did the “Tm with 1 mM uracil (apo Tm 54.2 ± 0.2 °C)” value [2] turn out when O=c1cc[nH]c(=O)[nH]1 [uracil] was run?
**A.** 64.1 ± 0.1 °C

B1: sybody Sy45 (synthetic nanobody) (VHH)
VHH: QVQLVESGGGSVQAGGSLRLSCAASGNIAYIHYLGWFRQAPGKEREGVAALSTTLGNTYYADSVKGRFTVSLDNAKNTVYLQMNSLKPEDTALYYCAAAYFGYSSPLAHERYMYWGQGTQVTVSA
notes: sybody with a convex paratope, selected from a synthetic library against wild type UraA; also called synthetic single-domain antibody; conformational probe
**Q.** For B1, which “thermostabilization (increase of melting temperature)” value [3] is on record?
**A.** 16.7 °C
